Experimental data taken from patent US20240383982A1 (Genmab, published 2024).

Experiments:
[1] = target: T1, pig (Sus scrofa) B7H4, full length, on HEK-293F cells (pig, UniProt Q7Z7D3 26-282 (human entry)); experiment: flow cytometry, HEK-293F cells transiently transfected with pig B7H4, PE anti-human IgG F(ab')2 [panel Pig B7H4]
T1 construct: Uniprot F1SAY4; also called pig B7H4
T1 chain: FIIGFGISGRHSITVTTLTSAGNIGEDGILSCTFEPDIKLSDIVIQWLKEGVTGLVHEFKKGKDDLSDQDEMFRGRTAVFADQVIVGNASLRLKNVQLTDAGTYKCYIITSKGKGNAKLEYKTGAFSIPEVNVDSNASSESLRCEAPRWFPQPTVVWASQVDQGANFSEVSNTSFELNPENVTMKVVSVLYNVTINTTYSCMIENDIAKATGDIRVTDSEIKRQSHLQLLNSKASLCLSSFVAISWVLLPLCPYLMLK
Protocol: (§1) Cells (3×10⁴ cells/well) were incubated in polystyrene 96-well round-bottom plates (Greiner bio-one, cat. no. 650180) with serial dilutions of antibodies (ranging from 0.000458 to 30 μg/mL in 4-fold dilution steps) in 100 μL PBS/0.1% BSA/0.02% azide (staining buffer) at 4° C. for 30 min. Experiments were performed in technical duplicate. After washing twice in staining buffer, cells were incubated in 50 μL secondary antibody at 4° C. for 30 min. As a secondary antibody, R-Phycoerythrin (PE)-conjugated goat-anti-human IgG F(ab′)₂ (1:500 in FACS buffer; Jackson ImmunoResearch Laboratories, Inc., West Grove, PA, cat. no. 109-116-098), was used. Cells were washed twice in staining buffer, re-suspended in 30 μL FACS buffer containing Topro-3 (1:10,000 dilution) and analyzed on an iQue Screener (Intellicyt Corporation, USA). Binding curves were analyzed using non-linear regression (sigmoidal dose-response with variable slope) using GraphPad Prism V7.02 software (GraphPad Software, San Diego, CA, USA).

[2] = target: T2, dog (Canis familiaris) B7H4, full length, on HEK-293F cells (dog, UniProt Q7Z7D3 25-282 (human entry)); experiment: flow cytometry, transiently transfected HEK-293F cells
T2 construct: Uniprot F1P8R9; also called dog B7H4
T2 chain: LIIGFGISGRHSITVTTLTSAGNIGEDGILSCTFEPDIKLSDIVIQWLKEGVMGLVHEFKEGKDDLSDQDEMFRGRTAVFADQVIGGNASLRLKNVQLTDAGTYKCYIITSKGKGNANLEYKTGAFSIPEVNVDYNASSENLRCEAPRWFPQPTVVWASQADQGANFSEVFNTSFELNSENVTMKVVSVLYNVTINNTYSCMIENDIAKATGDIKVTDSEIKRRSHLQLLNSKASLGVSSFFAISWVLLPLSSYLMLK

[3] = target: T3, rabbit (Oryctolagus cuniculus) B7H4, full length, on HEK-293F cells (rabbit, UniProt Q7Z7D3 25-282 (human entry)); experiment: as above
T3 construct: Uniprot G1TQE8; also called rabbit B7H4
T3 chain: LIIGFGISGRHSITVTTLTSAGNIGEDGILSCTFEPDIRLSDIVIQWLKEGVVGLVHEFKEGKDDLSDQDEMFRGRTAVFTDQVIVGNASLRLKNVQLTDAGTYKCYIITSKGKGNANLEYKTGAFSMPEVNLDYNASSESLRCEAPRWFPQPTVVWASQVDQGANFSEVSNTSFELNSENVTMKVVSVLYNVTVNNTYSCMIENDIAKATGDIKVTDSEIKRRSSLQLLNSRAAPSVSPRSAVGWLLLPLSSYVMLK

[4] = target: T4, human B7H4, full length, on cells (human, UniProt Q7Z7D3 25-282); experiment: flow cytometry on HCC1954 tumor cells [HCC1954 right panel]
T4 construct: Uniprot Q7Z7D3; Used for transfected HEK cells and for the B7H4-expressing human tumor cell lines (endogenous B7H4); also called VTCN1
T4 sequence: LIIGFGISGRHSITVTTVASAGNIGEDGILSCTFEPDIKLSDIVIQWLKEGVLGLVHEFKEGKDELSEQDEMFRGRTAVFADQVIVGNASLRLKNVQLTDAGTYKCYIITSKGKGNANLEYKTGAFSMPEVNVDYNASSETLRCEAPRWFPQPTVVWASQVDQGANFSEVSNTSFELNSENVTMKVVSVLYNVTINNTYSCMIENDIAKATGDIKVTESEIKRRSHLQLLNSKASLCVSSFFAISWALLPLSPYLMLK
Protocol: as §1
Binding was analyzed by flow cytometry as described above.

B1: IgG1-B7H4-C1-N52S-FEAR (antibody, V domains shown)
VH: QVQLQQWGAGLLKPSETLSLTCAVYGGSFSGYYWSWIRQPPGKGLEWIGEISHSGSTNYNPSLKSRVTISIDTSKNQFSLKLTSVTAADTAVFYCARGLFNWNFDSWGQGTLVTVSS
VL: DIQMTQSPSSLSASVGDRVTITCRASQGIRNDLGWYQQKPGKAPKRLIYGASSLQSGVPSRFSGSGSGTEFTLTISSLQPEDFATYYCLQHNSYPRTFGQGTTVEIKR
notes: Full length human IgG1 with L234F, L235E, D265A, K409R (FEAR) heavy chain constant region and kappa light chain; bivalent, monospecific; also called IgG1-B7H4-C1-052S-FEAR
B1: binds [1].

B2: IgG1-B7H4-C5-FEAR (antibody, V domains shown)
VH: QLQLQESGPGLVKPSETLSLTCTVSGGSIKSGSYYWGWIRQPPGKGLEWIGNIYYSGSTYYNPSLRSRVTISVDTSKNQFSLKLSSVTAADTAVYYCAREGSYPNQFDPWGQGTLVTVSS
VL: EIVMTQSPATLSVSPGERATLSCRASQSVSSNLAWYQQKPGQAPRLLIYGASTRATGIPARFSGSGSGTEFTLTISSLQSEDFAVYYCQQYHSFPFTFGGGTKVEIKR
notes: Full length IgG1 FEAR, kappa; variable domains from US20190085080A1
B2: binds [2]; binds [3].

B3: bsIgG1-huCD3-H101G-FEALxB7H4-C1-N52S-FEAR (bispecific antibody)
heavy 1: not shown
light 1: not shown
heavy 2: QVQLQQWGAGLLKPSETLSLTCAVYGGSFSGYYWSWIRQPPGKGLEWIGEISHSGSTNYNPSLKSRVTISIDTSKNQFSLKLTSVTAADTAVFYCARGLFNWNFDSWGQGTLVTVSSASTKGPSVFPLAPSSKSTSGGTAALGCLVKDYFPEPVTVSWNSGALTSGVHTFPAVLQSSGLYSLSSVVTVPSSSLGTQTYICNVNHKPSNTKVDKRVEPKSCDKTHTCPPCPAPEFEGGPSVFLFPPKPKDTLMISRTPEVTCVVVAVSHEDPEVKFNWYVDGVEVHNAKTKPREEQYNSTYRVVSVLTVLHQDWLNGKEYKCKVSNKALPAPIEKTISKAKGQPREPQVYTLPPSREEMTKNQVSLTCLVKGFYPSDIAVEWESNGQPENNYKTTPPVLDSDGSFFLYSRLTVDKSRWQQGNVFSCSVMHEALHNHYTQKSLSLSPGK
light 2: DIQMTQSPSSLSASVGDRVTITCRASQGIRNDLGWYQQKPGKAPKRLIYGASSLQSGVPSRFSGSGSGTEFTLTISSLQPEDFATYYCLQHNSYPRTFGQGTTVEIKRTVAAPSVFIFPPSDEQLKSGTASVVCLLNNFYPREAKVQWKVDNALQSGNSQESVTEQDSKDSTYSLSSTLTLSKADYEKHKVYACEVTHQGLSSPVTKSFNRGEC
notes: also called bslgG1-huCD3-H101G-FEALxB7H4-C1-N52S-FEAR; BslgG1-huCD3-H101G-FEALxB7H4-C1-N52S-FEAR
B3 was tested, and the “EC50 (read off the curve)” value [4] was about 1 µg/mL.
